Experiments:
[1] = immunoblot of total NKCC2 ± ManIA co-expression, HEK cells; details: glycan lost; control: WT NKCC2
[2] = immunoblot of NKCC2 ± ManIA co-expression, OKP cells; details: glycan changed form; control: untreated cells

B1: NKCC2: N442Q/N452Q (protein)
parent chain: MSVSIPSNSVPSSASRFQVHVINEGHGSAAAVGDSADPPHYEETSFGDEAQNRLRISFRPGNQECYDNFLQTGETAKTDTTFHAYDSHTNTYYLQTFGHNTMDAVPKIEYYRNTGSVSGPKVNRPSLLEIHEQLAKNVTVAPGSADRVANGDGMPGDEQAENKEEDMTGVVKFGWVKGVLVRCMLNIWGVMLFIRLSWIVGEAGIGLGVLIILLSTMVTSITGLSTSAIATNGFVRGGGAYYLISRSLGPEFGGSIGLIFAFANAVAVAMYVVGFAETVVDLLKESDSMMVDPTNDIRIIGSITVVILLGISVAGMEWEAKAQVILLVILLIAIANFFIGTVIPSNNEKKSRGFFNYQASIFAENFGPSFTKGEGFFSVFAIFFPAATGILAGANISGDLEDPQDAIPRGTMLAIFITTVAYIGVAICVAACVVRDATGSMNDTIVSGMNCNGSAACGLGYDFSRCQHEPCQYGLMNNFQVMSMVSGFGPLITAGIFSATLSSALASLVSAPKVFQALCKDNIFKGLQFFAKGYGKNNEPLRGYFLTFVIAMAFILIAELNVIAPIISNFFLASYALINFSCFHASYAKSPGWRPAYGIYNMWVSLFGAILCCAVMFVINWWAAVITYVIELFLYIYVTYKKPDVNWGSSTQALSYVSALDNALELTTVEDHVKNFRPQCIVLTGGPMTRPALLDITHAFTKNSGLCICCEVFVGPRKLCVKEMNSGMAKKQAWLIKNKIKAFYAAVAADCFRDGVRSLLQASGLGRMKPNTLVIGYKKNWRKAPLSELENYVGIIHDAFDFEIGVVIVRISQGFDISPVLQVQDELEKLEQERLALEAAIKDNECEEGKGGIRGLFKKAGKLNITKPAPKKDGNISSIQSMHVGEFNQKLVEASAQFKKKQGKGTIDVWWLFDDGGLTLLIPYILTLRKKWKDCKLRIYVGGKITRIEEEKISMASLLSKFRIKFADIHIIGDINIKPNKESWKVFEEMIEPYRLHESHKDLTTAEKLKRESPWKITDAELEAVKEKSYRQVRLNELLQEHSRAANLIVLSLPVARKGSISDLLYMAWLEILTKNLPPVLLVRGNHKNVLTFYS
- other: ManIA-induced down-regulation of NKCC2 protein [1]: decreases

B2: NKCC2: kifunensine 25 µM, 6 h (protein)
parent chain: MSVSIPSNSVPSSASRFQVHVINEGHGSAAAVGDSADPPHYEETSFGDEAQNRLRISFRPGNQECYDNFLQTGETAKTDTTFHAYDSHTNTYYLQTFGHNTMDAVPKIEYYRNTGSVSGPKVNRPSLLEIHEQLAKNVTVAPGSADRVANGDGMPGDEQAENKEEDMTGVVKFGWVKGVLVRCMLNIWGVMLFIRLSWIVGEAGIGLGVLIILLSTMVTSITGLSTSAIATNGFVRGGGAYYLISRSLGPEFGGSIGLIFAFANAVAVAMYVVGFAETVVDLLKESDSMMVDPTNDIRIIGSITVVILLGISVAGMEWEAKAQVILLVILLIAIANFFIGTVIPSNNEKKSRGFFNYQASIFAENFGPSFTKGEGFFSVFAIFFPAATGILAGANISGDLEDPQDAIPRGTMLAIFITTVAYIGVAICVAACVVRDATGSMNDTIVSGMNCNGSAACGLGYDFSRCQHEPCQYGLMNNFQVMSMVSGFGPLITAGIFSATLSSALASLVSAPKVFQALCKDNIFKGLQFFAKGYGKNNEPLRGYFLTFVIAMAFILIAELNVIAPIISNFFLASYALINFSCFHASYAKSPGWRPAYGIYNMWVSLFGAILCCAVMFVINWWAAVITYVIELFLYIYVTYKKPDVNWGSSTQALSYVSALDNALELTTVEDHVKNFRPQCIVLTGGPMTRPALLDITHAFTKNSGLCICCEVFVGPRKLCVKEMNSGMAKKQAWLIKNKIKAFYAAVAADCFRDGVRSLLQASGLGRMKPNTLVIGYKKNWRKAPLSELENYVGIIHDAFDFEIGVVIVRISQGFDISPVLQVQDELEKLEQERLALEAAIKDNECEEGKGGIRGLFKKAGKLNITKPAPKKDGNISSIQSMHVGEFNQKLVEASAQFKKKQGKGTIDVWWLFDDGGLTLLIPYILTLRKKWKDCKLRIYVGGKITRIEEEKISMASLLSKFRIKFADIHIIGDINIKPNKESWKVFEEMIEPYRLHESHKDLTTAEKLKRESPWKITDAELEAVKEKSYRQVRLNELLQEHSRAANLIVLSLPVARKGSISDLLYMAWLEILTKNLPPVLLVRGNHKNVLTFYS
- other: ManIA-induced down-regulation of NKCC2 protein [2]: decreases

From PMC8750359
